Results taken from patent EP4703474A1, “ANTI-LRRC15 ANTIBODY” (priority 2023, dated 2024).

Assays:
LRRC15-negative HEK293α = test: In vitro cell growth inhibitory activity (CellTiter-Glo 2.0), negative control cells; type: cell-based; conditions: 0.0002 to 1.5 µg/mL, 6 days of culture, compared to control hIgG-PBD
Description: (§1) LRRC15-positive human osteosarcoma cell line HuO9 (JCRB) was seeded in 10% FBS-containing RPMI medium at 5 x 10^3 cells/50 μL/well, LRRC15-positive human melanoma cell line Hs294T was seeded in 10% FBS and 20 ng/mL TGFβ1-containing RPMI medium at 5 x 10^3 cells/50 μL/well, or, as a negative control, LRRC15-negative HEK293α was seeded in 10% FBS-containing RPMI medium at 2 x 10^3 cells/50 μL/well in a 96-well plate, and cultured overnight under conditions of 37°C and 5% CO2. The next day, the three types of hR024-drug conjugates (clone names of […]-PBD, […]-V1-PBD, and […]-V2-PBD) prepared in Example 5 and the control hIgG-PBD were diluted at a common ratio of 3 to a final concentration of 0.0002 (μg/mL) from 1.5 (μg/mL) and added. After 6 days of culture, the number of viable cells was measured by quantification of ATP using CellTiter-Glo 2.0 Assay (Promega).

[1] = tested on: LRRC15-positive human melanoma cell line Hs294T; test: In vitro cell growth inhibitory activity (CellTiter-Glo 2.0); type: cell-based; conditions: 20 ng/mL TGFβ1-containing medium, 0.0002 to 1.5 µg/mL, 6 days of culture, compared to control hIgG-PBD
Description: as §1

[2] = tested on: LRRC15-positive human osteosarcoma cell line HuO9; test: as above; type: cell-based; conditions: 0.0002 to 1.5 µg/mL, 6 days of culture, compared to control hIgG-PBD
Description: as §1

[3] = tested on: LRRC15-negative human lung carcinoma cell line EBC-1; test: In vivo antitumor effect, EBC-1 subcutaneous transplant model; conditions: tail vein, on Day 9, female SCID mice
Description: The antitumor effects of the antibody-drug conjugates were evaluated by using animal models in which cells of the human tumor cell line had been transplanted into immunodeficient mice. 4 to 6 Week-old SCID mice (CB17/Icr-Prkdc[scid]/CrlCrlj, Jackson Laboratory Japan, Inc.) were habituated for 3 days or more under SPF conditions before experimental use. The mice were fed with sterilized solid feed (FR-2, Funabashi Farms Co., Ltd.) and given sterilized tap water (prepared by adding a solution of 5 to 15 ppm sodium hypochlorite). The major and minor diameters of the transplanted tumors were measured twice a week with an electronic digital caliper ([…] Corporation), and the estimated tumor volume was calculated using the following formula. Estimated tumor volume (mm^3) = 1/2 × major diameter (mm) × [minor diameter (mm)]^2 All antibody-drug conjugates were diluted with ABS and administered into the tail vein at doses shown in each Example. In addition, ABS (vehicle) or control hIgG-PBD prepared in Reference Example 4 was administered as the control group, in a similar manner. 5 to 6 Mice were used per group in the experiment. LRRC15-negative human lung carcinoma cell line EBC-1 (JCRB) was suspended in PBS mixed with 50% Matrigel (Corning Incorporated), 1.0 × 10^6 cells were subcutaneously transplanted into the right flank of female SCID mice (Day 0), and random grouping was performed on Day 9. From publicly known information, it is known that in this tumor model, carcinoma cells are LRRC15 negative, and cells in the tumor stroma are LRRC15 positive (International Publication No. 2017/095805). On the day of grouping, a vehicle, the antibody-drug conjugate […]-PBD, […]-V1-PBD, or […]-V2-PBD prepared in Example 5 was administered into the tail vein at a dose of 0.4 mg or 0.2 mg/kg. The abscissa indicates the number of days, and the ordinate indicates estimated tumor volume, and the error bars indicate SEM values. […] The antitumor effects of the antibody-drug conjugates were evaluated by using animal models in which cells of a human tumor cell line had been transplanted into immunodeficient mice, or cells of a mouse tumor cell line had been transplanted into immunocompetent mice. 4 to 6 Week-old SCID mice (CB17/Icr-Prkdc[scid]/CrlCrlj, Jackson Laboratory Japan, Inc.), NSG mice (NOD.Cg-Prkdcscid Il2rgtm1Wjl/SzJ, Jackson Laboratory Japan, Inc.), or B6J mice (C57BL/6J, Jackson Laboratory Japan, Inc.) were habituated for 3 days or more under SPF conditions before experimental use. The mice were fed with sterilized solid feed and given sterilized tap water. The major and minor diameters of the transplanted tumors were measured twice a week with an electronic digital caliper (Mitutoyo Corporation), and the estimated tumor volume was calculated using the following formula. […]

| Molecule | inhibitory activity against cell growth (LRRC15-negative HEK293α) | inhibitory activity against cell growth [1] | inhibitory activity against cell growth [2] | antitumor effect (estimated tumor volume) ([3]; 0.4 mg or 0.2 mg/kg) | antitumor effect (estimated tumor volume) ([3]; 0.3 mg/kg, huM25-PBD at the same dose) |
| --- | --- | --- | --- | --- | --- |
| H02L01-PBD (conjugate) heavy: EVQLVESGGGLVQPGGSLRLSCAASGFTFRDYYMAWVRQAPGKGLEWVSSIGFDESRTYYADSVKGRFTISRDDSKNTLYLQMNSLRAEDTAVYYCARHGVSYYSGDNWFAYWGQGTLVTVSSASTKGPSVFPLAPSSKSTSGGTAALGCLVKDYFPEPVTVSWNSGALTSGVHTFPAVLQSSGLYSLSSVVTVPSSSLGTQTYICNVNHKPSNTKVDKKVEPKSCDKTHTCPPCPAPEAAGGPSVFLFPPKPKDTLMISRTPEVTCVVVDVSHEDPEVKFNWYVDGVEVHNAKTKPREEQYNSTYRVVSVLTVLHQDWLNGKEYKCKVSNKALAAPIEKTISKAKGQPREPQVYTLPPSREEMTKNQVSLTCLVKGFYPSDIAVEWESNGQPENNYKTTPPVLDSDGSFFLYSKLTVDKSRWQQGNVFSCSVMHEALHNHYTQKSLSLSPGK light: DIQMTQSPSSLSASVGDRVTITCKSSQGLLYSGDQKNYLAWYQQKPGKAPKLLIYWASTRQSGVPSRFSGSGSGTDFTLTISSLQPEDFATYYCQQYYDPPYTFGQGTKVEIKRTVAAPSVFIFPPSDEQLKSGTASVVCLLNNFYPREAKVQWKVDNALQSGNSQESVTEQDSKDSTYSLSSTLTLSKADYEKHKVYACEVTHQGLSSPVTKSFNRGEC | growth inhibitory activity equivalent to that of the control hIgG-PBD | inhibited tumor cell proliferation when added at a lower concentration | inhibited tumor cell proliferation when added at a lower concentration | antitumor activity higher than that of the vehicle group | – |
| H02L01-V2-PBD (conjugate) heavy: EVQLVESGGGLVQPGGSLRLSCAASGFTFRDYYMAWVRQAPGKGLEWVSSIGFDESRTYYADSVKGRFTISRDDSKNTLYLQMNSLRAEDTAVYYCARHGVSRYSGDNWFAYWGQGTLVTVSSASTKGPSVFPLAPSSKSTSGGTAALGCLVKDYFPEPVTVSWNSGALTSGVHTFPAVLQSSGLYSLSSVVTVPSSSLGTQTYICNVNHKPSNTKVDKKVEPKSCDKTHTCPPCPAPEAAGGPSVFLFPPKPKDTLMISRTPEVTCVVVDVSHEDPEVKFNWYVDGVEVHNAKTKPREEQYNSTYRVVSVLTVLHQDWLNGKEYKCKVSNKALAAPIEKTISKAKGQPREPQVYTLPPSREEMTKNQVSLTCLVKGFYPSDIAVEWESNGQPENNYKTTPPVLDSDGSFFLYSKLTVDKSRWQQGNVFSCSVMHEALHNHYTQKSLSLSPGK light: DIQMTQSPSSLSASVGDRVTITCKSSQGLLYSGDQKNYLAWYQQKPGKAPKLLIYWASTRQSGVPSRFSGSGSGTDFTLTISSLQPEDFATYYCQQYYDPPYTFGQGTKVEIKRTVAAPSVFIFPPSDEQLKSGTASVVCLLNNFYPREAKVQWKVDNALQSGNSQESVTEQDSKDSTYSLSSTLTLSKADYEKHKVYACEVTHQGLSSPVTKSFNRGEC | growth inhibitory activity equivalent to that of the control hIgG-PBD | inhibited tumor cell proliferation when added at a lower concentration | inhibited tumor cell proliferation when added at a lower concentration | antitumor activity higher than that of the vehicle group | – |
| H02L01-V1-PBD (conjugate) heavy: EVQLVESGGGLVQPGGSLRLSCAASGFTFRDYYMAWVRQAPGKGLEWVSSIGFDESRTYYADSVKGRFTISRDDSKNTLYLQMNSLRAEDTAVYYCARHGVSKYSGDNWFAYWGQGTLVTVSSASTKGPSVFPLAPSSKSTSGGTAALGCLVKDYFPEPVTVSWNSGALTSGVHTFPAVLQSSGLYSLSSVVTVPSSSLGTQTYICNVNHKPSNTKVDKKVEPKSCDKTHTCPPCPAPEAAGGPSVFLFPPKPKDTLMISRTPEVTCVVVDVSHEDPEVKFNWYVDGVEVHNAKTKPREEQYNSTYRVVSVLTVLHQDWLNGKEYKCKVSNKALAAPIEKTISKAKGQPREPQVYTLPPSREEMTKNQVSLTCLVKGFYPSDIAVEWESNGQPENNYKTTPPVLDSDGSFFLYSKLTVDKSRWQQGNVFSCSVMHEALHNHYTQKSLSLSPGK light: DIQMTQSPSSLSASVGDRVTITCKSSQGLLYSGDQKNYLAWYQQKPGKAPKLLIYWASTRQSGVPSRFSGSGSGTDFTLTISSLQPEDFATYYCQQYYDPPYTFGQGTKVEIKRTVAAPSVFIFPPSDEQLKSGTASVVCLLNNFYPREAKVQWKVDNALQSGNSQESVTEQDSKDSTYSLSSTLTLSKADYEKHKVYACEVTHQGLSSPVTKSFNRGEC | growth inhibitory activity equivalent to that of the control hIgG-PBD | inhibited tumor cell proliferation when added at a lower concentration | inhibited tumor cell proliferation when added at a lower concentration | antitumor activity higher than that of the vehicle group | antitumor activity higher than that of the vehicle and huM25-PBD |
